# Experimental data: the RNAGym collection of RNA variant scans (doi:10.1073/pnas.2313332121)
# B1: TPR t1 (parent)
# chain: GACCAAUCUGCCCUCAGAGCUCGAGAACAUCUUCGGAUGCAGAGGAGGCAGGCUUCGGUGGCGCGAUAGCGCCAACGUCCUCAACCUCCAAUGCAUCCCACCACAUGAUGAUGCCUGAAGAGCCUUGGUUUUUUG
# Variants of: B1
# Test: polymerase ribozyme fitness, log enrichment relative to wild type (log ratio); higher = more active; in vitro selection for triplet polymerase activity
# In short: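 One round of in vitro selection, in triplicate, was applied to PCR-built, transcribed mutant libraries of each subunit of a heterodimeric triplet polymerase ribozyme. The steps were annealing with a biotinylated primer, partner subunit and triplets, incubation frozen at −7 °C, gel excision of extended constructs, streptavidin-bead capture and RT-PCR. Fitness is the logarithm, base 2, of genotype enrichment over wild-type enrichment from inverse-variance-weighted replicate averages of Illumina-sequenced inputs and outputs, keeping genotypes with ≥10 input reads and ≥1 read per output.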
row,Variant,polymerase ribozyme fitness (log ratio)
1,C13G G36U A37G C80U,-5.7
2,C13G G36U G60A G110U,-4.24
3,C13G G39U C115U,-2.63
4,C13G G39U U54A,-2.59
5,C13G G42U C49U G61U U130A,-4.93
6,C13G G44A G48C U55G C79U C124G,-0.404
7,C13G G44U C82A,-3.4
8,C13G G45A G48A G61C,-3.73
9,C13G G45U C89A G120U U130A,-3.41
10,C13G G47C,-3.71
11,C13G G47U U87A C88U G110U,-6.69
12,C13G G48C G63U A105C,-5.9
13,C13G G51C G61C C104U G120C,-6.03
14,C13G G52U,-3.2
15,C13G G52U G60A C104U C115G A121C,-3.16
16,C13G G57C C73A G110A,-2.44
17,C13G G58A C70U A105C C124A G127A,-4.77
18,C13G G60A G77C U130C,-3.08
19,C13G G60C,-1.52
20,C13G G61A C94G U116A,-6.69
21,C13G G63C C85G U112A G120C,-1.45
22,C13G G71C A91U,-3.97
23,C13G G71U,-1.79
24,C13G G110A,-1.87

row,Variant,polymerase ribozyme fitness (log ratio)
1,C13G G113A A118C,-4.34
2,C13G G117A,-1.95
3,C13G G120C,0.441
4,C13G G120U,-0.586
5,C13G U21A G52C A91C G120C,-3.21
6,C13G U32C A46U C70A C104U,-3.75
7,C13G U32C C53A C70G,-3.88
8,C13G U54C C85U U87C,-1.99
9,C13G U54C G63A A100U U109A U131G,-6.38
10,C13G U59A C62G,-3.87
11,C13G U59C,0.688
12,C13U,0.225
13,C13U A16C G48C U59G G60U A100C A121C,-0.128
14,C13U A18U,-0.945
15,C13U A18U C31U C64G A103C G110A,-5.64
16,C13U A18U U81G G117U,-6.34
17,C13U A26G G63C U81A G117C,-6.91
18,C13U A26U,-3.03
19,C13U A27G,-2.05
20,C13U A27U C49A U130C U132C,-2.53
21,C13U A27U C72A U130A,-2.6
22,C13U A27U G36A G61A C79A,-5.13
23,C13U A27U G42U C64G A100C G120C C123G,-7.95
24,C13U A29C G52U C104U G120A U131A,-2.05

row,Variant,polymerase ribozyme fitness (log ratio)
1,C13U A29U A46U C56A C97U,-3.44
2,C13U A37C C53G G128C,-1.48
3,C13U A37C U55A,-0.3
4,C13U A37U,0.687
5,C13U A41G A46G C53A U78C,-0.474
6,C13U A41U,-0.968
7,C13U A43C G71A C82A C98G C102A A105U G117C,-6.77
8,C13U A43G G60A,-1.39
9,C13U A46G G47U C82A,-1.52
10,C13U A46U G110A A111C A119C,-5.5
11,C13U A50C,-0.095
12,C13U A83G,0.0266
13,C13U A91U,-0.839
14,C13U A100U C101U C104U A121C,1.33
15,C13U A108U,-4.78
16,C13U A121G,2.04
17,C13U A121U,2.03
18,C13U C15G C88A U96C,-2.33
19,C13U C15U U54G U81A U96A,-3.41
20,C13U C20G G45A U96A,-4.96
21,C13U C20U G63U,-2.31
22,C13U C22G A26C A37U A41G A50G C115U,-3.21
23,C13U C22G C49U G71C C102U G122A,-5.74
24,C13U C28A G110C G120A,-1.9

row,Variant,polymerase ribozyme fitness (log ratio)
1,C13U C28G A43G C62U G110C,-1.17
2,C13U C28G A43G G110C,-0.443
3,C13U C28G C34G C49A C76A A100C U109A C123G,-6.13
4,C13U C28G C101A C104A,-5.64
5,C13U C28G G120C,-1.05
6,C13U C34G G47U C72G U112A,-5.6
7,C13U C34U,-4.26
8,C13U C34U C40U A50G U59C,-5.78
9,C13U C40U A43U C72G A84G C89G,-6.24
10,C13U C40U C124U G135C,0.605
11,C13U C49U G57A C82G U106A,-0.895
12,C13U C53A U54C G120C,1.15
13,C13U C53G C56A,-0.438
14,C13U C56A U96G,-0.637
15,C13U C56G C62U A74G U96A A100C,-4.8
16,C13U C56U,0.718
17,C13U C56U A90G,0.402
18,C13U C56U A111G,0.163
19,C13U C70A C72U,-1.42
20,C13U C70U U109A U132A,-6.56
21,C13U C72A C101A C114A,-1.86
22,C13U C72U,-0.334
23,C13U C72U C94G,-1.35
24,C13U C73U C124U G127A,0.275

row,Variant,polymerase ribozyme fitness (log ratio)
1,C13U C76U,-0.121
2,C13U C86U,-0.506
3,C13U C88A,-0.243
4,C13U C89G,-1.01
5,C13U C98A,-4.9
6,C13U C99U U133G,-2.46
7,C13U C102U G117U,-3.38
8,C13U C104U,-0.259
9,C13U G17A,-1.44
10,C13U G17A A43C U59C U132C,-4.55
11,C13U G19A G45C U59C C82U U112A,0.0802
12,C13U G19A G77C U81C,-3.54
13,C13U G35C,-3.79
14,C13U G39C G63U U125G U133A,-2.15
15,C13U G39U C73A A83U A121U,1.24
16,C13U G39U U59A G128U,-1.64
17,C13U G44A C49U C86G C102U U106G U112G A121C U131A U133A,-6.07
18,C13U G44A C79G G93U,-4.32
19,C13U G45A G51U C115A,-3.13
20,C13U G45C C70U C124A,-0.034
21,C13U G45C C73U C123A,0.429
22,C13U G45U A84G A121U,0.667
23,C13U G45U C82U,-0.895
24,C13U G45U U55C C70U G93U,-3.96

row,Variant,polymerase ribozyme fitness (log ratio)
1,C13U G47C U78C U109G,-4.45
2,C13U G47U,-1.97
3,C13U G48A C98U G122A G128C G135U,-1.66
4,C13U G48U C73U U130G,-0.119
5,C13U G51U G61A C88U U106A,-2.6
6,C13U G52U G110U U133C,-1.33
7,C13U G57A C102A G127C,-3.71
8,C13U G58A C73U,-0.277
9,C13U G60A,0.0451
10,C13U G60A C82A U131G,-0.416
11,C13U G60U,-0.0139
12,C13U G61A,-0.508
13,C13U G61C G93U U132C,-2.93
14,C13U G69A C88U,-2.75
15,C13U G71A,-0.0397
16,C13U G71U A111G U126G,-0.972
17,C13U G110A,-0.303
18,C13U G117U,-2.13
19,C13U G120A,1.58
20,C13U G120C,1.89
21,C13U G122A,0.447
22,C13U U14C G69U C70U A90G,-2.94
23,C13U U30C C80A C89U C124G,-5.32
24,C13U U32G U87C,-7.09

row,Variant,polymerase ribozyme fitness (log ratio)
1,C13U U55G C72U,-0.221
2,C13U U59A G60A C80U A95C G120U,-1.94
3,C13U U59C A83U U96G,-1.05
4,C13U U78C C115U,1.27
5,C13U U106G,-0.787
6,C13U U112A C123A G128C,-1.12
7,C13U U126A,-1.64
8,C13U U129A,-0.61
9,U14A,-1.85
10,U14A A24C C49G C72U U92C G113U U116A,-6.78
11,U14A A24G G61C C89G A91C C101A U112A G122U U125A,-6.22
12,U14A A26U,-5.1
13,U14A A29G U55C C72U C86U,-4.41
14,U14A A37C C40A G69U,-4.24
15,U14A A37U G52A U59C,-3.31
16,U14A A46C C70A U112A A119G G122C,-2.7
17,U14A A84C G122A,-1.57
18,U14A C20G C40U G45A G63C U96G U112A G117A,-6.83
19,U14A C31U U32G C53G C80A C104U G120C G135U,-7.94
20,U14A C34G G71C A91G C124A,-6.51
21,U14A C49G,-2.67
22,U14A C49G G61C A66U,-5.01
23,U14A C49U G60A A100U U106A,-3.83
